From patent publication US20150125397A1 (AbbVie / Abbott, published 2015)

Key:
[1] = target: mouse IgM (mouse, UniProt P01872 1-454); test: IgM binding ELISA, mIgM coated on plate
[2] = target: mouse IgM B cell receptor on primary murine B cells (mouse); test: cell-based or functional assay

mouse IgM, sequence (P01872 whole entry): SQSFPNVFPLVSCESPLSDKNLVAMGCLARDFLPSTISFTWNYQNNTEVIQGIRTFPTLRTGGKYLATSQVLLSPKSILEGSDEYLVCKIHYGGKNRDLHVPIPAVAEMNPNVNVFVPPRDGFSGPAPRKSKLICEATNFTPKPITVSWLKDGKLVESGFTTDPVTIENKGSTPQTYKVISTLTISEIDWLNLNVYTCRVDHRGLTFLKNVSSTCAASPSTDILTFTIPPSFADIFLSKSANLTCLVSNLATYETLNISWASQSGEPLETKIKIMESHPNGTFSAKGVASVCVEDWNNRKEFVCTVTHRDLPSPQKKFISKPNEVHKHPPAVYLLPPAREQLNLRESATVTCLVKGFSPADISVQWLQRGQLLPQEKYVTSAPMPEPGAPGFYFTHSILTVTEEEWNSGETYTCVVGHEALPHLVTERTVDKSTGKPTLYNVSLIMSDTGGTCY

B1: DVD3755 (bispecific antibody, human IgG1, kappa)
heavy: not shown
light: DVVMTQTPLSLPVSLGDQASISCRSSQSLVHSNGNTYLHWYLQKPGQSPKLLIYKVSNRFSGVPDRFSGSGSGTDFTLKISRVEAEDLGAYFCSQSTHVPYTFGGPTRLEIKRTVAAPNTVMTQSPTSMFISVGDRVTMNCKASQNVGSDVDWYQQKTGQSPKLLISGTSNRYTGVPDRFTGSGSGTDFTLTISNMQAEDLAVYYCLQYNYNPTFGAGTKLELKRTVAAPSVFIFPPSDEQLKSGTASVVCLLNNFYPREAKVQWKVDNALQSGNSQESVTEQDSKDSTYSLSSTLTLSKADYEKHKVYACEVTHQGLSSPVTKSFNRGEC
notes: Four-chain DVD-Ig
- EC50 [1]: 0.0971 µg/mL
- ^3H incorporation, AM14 TLR9-/- B cells [2]: 402
- ^3H incorporation, AM14 WT B cells [2]: 8500

B2: DVD3752 (bispecific antibody, human IgG1, kappa)
heavy: not shown
light: DVVMTQTPLSLPVSLGDQASISCRSSQSLVHSNGNTYLHWYLQKPGQSPKLLIYKVSNRFSGVPDRFSGSGSGTDFTLKISRVEAEDLGAYFCSQSTHVPYTFGGPTRLEIKRTVAAPNTVMTQSPTSMFISVGDRVTMNCKASQNVGSDVDWYQQKTGQSPKLLISGTSNRYTGVPDRFTGSGSGTDFTLTISNMQAEDLAVYYCLQYNYNPTFGAGTKLELKRTVAAPSVFIFPPSDEQLKSGTASVVCLLNNFYPREAKVQWKVDNALQSGNSQESVTEQDSKDSTYSLSSTLTLSKADYEKHKVYACEVTHQGLSSPVTKSFNRGEC
notes: Four-chain DVD-Ig
- EC50 [1]: 0.205 µg/mL
- ^3H incorporation, AM14 TLR9-/- B cells [2]: 512
- ^3H incorporation, AM14 WT B cells [2]: 12700

B3: DVD3754 (bispecific antibody, human IgG1, kappa)
heavy: not shown
light: DVVMTQTPLSLPVSLGDQASISCRSSQSLVHSNGNTYLHWYLQKPGQSPKLLIYKVSNRFSGVPDRFSGSGSGTDFTLKISRVEAEDLGAYFCSQSTHVPYTFGGPTRLEIKRTVAAPSVFIFPPNTVMTQSPTSMFISVGDRVTMNCKASQNVGSDVDWYQQKTGQSPKLLISGTSNRYTGVPDRFTGSGSGTDFTLTISNMQAEDLAVYYCLQYNYNPTFGAGTKLELKRTVAAPSVFIFPPSDEQLKSGTASVVCLLNNFYPREAKVQWKVDNALQSGNSQESVTEQDSKDSTYSLSSTLTLSKADYEKHKVYACEVTHQGLSSPVTKSFNRGEC
notes: Four-chain DVD-Ig; also called IgM/DNA DVD3754
- EC50 [1]: 0.117 µg/mL
- ^3H incorporation, AM14 TLR9-/- B cells [2]: 1600
- ^3H incorporation, AM14 WT B cells [2]: 35200

B4: DVD3756 (bispecific antibody, human IgG1, kappa)
heavy: not shown
light: NTVMTQSPTSMFISVGDRVTMNCKASQNVGSDVDWYQQKTGQSPKLLISGTSNRYTGVPDRFTGSGSGTDFTLTISNMQAEDLAVYYCLQYNYNPTFGAGTKLELKRGGSGGGGSGDVVMTQTPLSLPVSLGDQASISCRSSQSLVHSNGNTYLHWYLQKPGQSPKLLIYKVSNRFSGVPDRFSGSGSGTDFTLKISRVEAEDLGAYFCSQSTHVPYTFGGPTRLEIKRTVAAPSVFIFPPSDEQLKSGTASVVCLLNNFYPREAKVQWKVDNALQSGNSQESVTEQDSKDSTYSLSSTLTLSKADYEKHKVYACEVTHQGLSSPVTKSFNRGEC
notes: Four-chain DVD-Ig
- EC50 [1]: 0.0331 µg/mL
- ^3H incorporation, AM14 TLR9-/- B cells [2]: 459
- ^3H incorporation, AM14 WT B cells [2]: 7790

B5: DVD3759 (bispecific antibody, human IgG1, kappa)
heavy: not shown
light: NTVMTQSPTSMFISVGDRVTMNCKASQNVGSDVDWYQQKTGQSPKLLISGTSNRYTGVPDRFTGSGSGTDFTLTISNMQAEDLAVYYCLQYNYNPTFGAGTKLELKRTVAAPSVFIFPPDVVMTQTPLSLPVSLGDQASISCRSSQSLVHSNGNTYLHWYLQKPGQSPKLLIYKVSNRFSGVPDRFSGSGSGTDFTLKISRVEAEDLGAYFCSQSTHVPYTFGGPTRLEIKRTVAAPSVFIFPPSDEQLKSGTASVVCLLNNFYPREAKVQWKVDNALQSGNSQESVTEQDSKDSTYSLSSTLTLSKADYEKHKVYACEVTHQGLSSPVTKSFNRGEC
notes: Four-chain DVD-Ig
- EC50 [1]: 0.0412 µg/mL
- ^3H incorporation, AM14 TLR9-/- B cells [2]: 970
- ^3H incorporation, AM14 WT B cells [2]: 18600

B6: DVD3751 (bispecific antibody, human IgG1, kappa)
heavy: not shown
light: DVVMTQTPLSLPVSLGDQASISCRSSQSLVHSNGNTYLHWYLQKPGQSPKLLIYKVSNRFSGVPDRFSGSGSGTDFTLKISRVEAEDLGAYFCSQSTHVPYTFGGPTRLEIKRGGSGGGGSGNTVMTQSPTSMFISVGDRVTMNCKASQNVGSDVDWYQQKTGQSPKLLISGTSNRYTGVPDRFTGSGSGTDFTLTISNMQAEDLAVYYCLQYNYNPTFGAGTKLELKRTVAAPSVFIFPPSDEQLKSGTASVVCLLNNFYPREAKVQWKVDNALQSGNSQESVTEQDSKDSTYSLSSTLTLSKADYEKHKVYACEVTHQGLSSPVTKSFNRGEC
notes: Four-chain DVD-Ig
- EC50 [1]: 0.191 µg/mL
- ^3H incorporation, AM14 TLR9-/- B cells [2]: 1180
- ^3H incorporation, AM14 WT B cells [2]: 35600

B7: DVD3757 (bispecific antibody, human IgG1, kappa)
heavy: not shown
light: NTVMTQSPTSMFISVGDRVTMNCKASQNVGSDVDWYQQKTGQSPKLLISGTSNRYTGVPDRFTGSGSGTDFTLTISNMQAEDLAVYYCLQYNYNPTFGAGTKLELKRTVAAPDVVMTQTPLSLPVSLGDQASISCRSSQSLVHSNGNTYLHWYLQKPGQSPKLLIYKVSNRFSGVPDRFSGSGSGTDFTLKISRVEAEDLGAYFCSQSTHVPYTFGGPTRLEIKRTVAAPSVFIFPPSDEQLKSGTASVVCLLNNFYPREAKVQWKVDNALQSGNSQESVTEQDSKDSTYSLSSTLTLSKADYEKHKVYACEVTHQGLSSPVTKSFNRGEC
notes: Four-chain DVD-Ig
- EC50 [1]: 0.0418 µg/mL
- ^3H incorporation, AM14 TLR9-/- B cells [2]: 382
- ^3H incorporation, AM14 WT B cells [2]: 4060

B8: DVD3760 (bispecific antibody, human IgG1, kappa)
heavy: not shown
light: NTVMTQSPTSMFISVGDRVTMNCKASQNVGSDVDWYQQKTGQSPKLLISGTSNRYTGVPDRFTGSGSGTDFTLTISNMQAEDLAVYYCLQYNYNPTFGAGTKLELKRTVAAPDVVMTQTPLSLPVSLGDQASISCRSSQSLVHSNGNTYLHWYLQKPGQSPKLLIYKVSNRFSGVPDRFSGSGSGTDFTLKISRVEAEDLGAYFCSQSTHVPYTFGGPTRLEIKRTVAAPSVFIFPPSDEQLKSGTASVVCLLNNFYPREAKVQWKVDNALQSGNSQESVTEQDSKDSTYSLSSTLTLSKADYEKHKVYACEVTHQGLSSPVTKSFNRGEC
notes: Four-chain DVD-Ig
- EC50 [1]: 0.0353 µg/mL
- ^3H incorporation, AM14 TLR9-/- B cells [2]: 302
- ^3H incorporation, AM14 WT B cells [2]: 4340
